Results from the Human Domainome abundance scans (Beltran et al. 2025).
± gives the uncertainty stated by the source.

B1: Peroxisome proliferator-activated receptor delta, residues 71 to 145; numbered along this chain, Q03181 (parent)
chain: NMECRVCGDKASGFHYGVHACEGCKGFFRRTIRMKLEYEKCERSCKIQKKNRNKCQYCRFQKCLALGMSHNAIRF

Variants of: B1
Assay: abundance fitness (aPCA) (normalised: wild type 0, dead -1); higher = more abundant; growth selection in yeast, the domain comes from the species named
Conditions: Homo sapiens
With NMECRVCGDKASGFHYGVHACEGCKGFFRRTIRMKLEYNKCERSCKIQKKNRNKCQYCRFQKCLALGMSHNAIRF [E39N] the abundance fitness was -0.222 ± 0.075. Variant NMECRVCGDKASGFHYGVHACEGCKGFFRRTIRMKLEYPKCERSCKIQKKNRNKCQYCRFQKCLALGMSHNAIRF [E39P] has an abundance fitness of 0.072 ± 0.04. NMECRVCGDKASGFHYGVHACEGCKGFFRRTIRMKLEYTKCERSCKIQKKNRNKCQYCRFQKCLALGMSHNAIRF [E39T] showed an abundance fitness of -0.052 ± 0.045. Work on NMECRVCGDKASGFHYGVHACEGCKGFFRRTIRMKLEYYKCERSCKIQKKNRNKCQYCRFQKCLALGMSHNAIRF [E39Y] yielded an abundance fitness of -0.447 ± 0.1. Variant NMECRVCGDKASGFHYGVHACEGCKGFFRRTIRMKLEYVKCERSCKIQKKNRNKCQYCRFQKCLALGMSHNAIRF [E39V] has an abundance fitness of -0.061 ± 0.034. NMECRVCGDKASGFHYGVHACEGCKGFFRRTIRMKLEYWKCERSCKIQKKNRNKCQYCRFQKCLALGMSHNAIRF [E39W] showed an abundance fitness of -0.518 ± 0.064. With NMECRVCGDKASGFHYGVHACEGCKGFFRRTIRMKLEYQKCERSCKIQKKNRNKCQYCRFQKCLALGMSHNAIRF [E39Q] the abundance fitness was -0.082 ± 0.052. With NMECRVCGDKASGFHYGVHACEGCKGFFRRTIRMKLEYSKCERSCKIQKKNRNKCQYCRFQKCLALGMSHNAIRF [E39S] the abundance fitness was -0.094 ± 0.037. NMECRVCGDKASGFHYGVHACEGCKGFFRRTIRMKLEYRKCERSCKIQKKNRNKCQYCRFQKCLALGMSHNAIRF [E39R] showed an abundance fitness of -0.224 ± 0.032. Work on NMECRVCGDKASGFHYGVHACEGCKGFFRRTIRMKLEYEKCEPSCKIQKKNRNKCQYCRFQKCLALGMSHNAIRF [R43P] yielded an abundance fitness of -0.168 ± 0.072. With NMECRVCGDKASGFHYGVHACEGCKGFFRRTIRMKLEYEKCEISCKIQKKNRNKCQYCRFQKCLALGMSHNAIRF [R43I] the abundance fitness was -0.349 ± 0.13. With NMECRVCGDKASGFHYGVHACEGCKGFFRRTIRMKLEYEKCECSCKIQKKNRNKCQYCRFQKCLALGMSHNAIRF [R43C] the abundance fitness was -0.138 ± 0.076. Work on NMECRVCGDKASGFHYGVHACEGCKGFFRRTIRMKLEYEKCEDSCKIQKKNRNKCQYCRFQKCLALGMSHNAIRF [R43D] yielded an abundance fitness of -0.149 ± 0.075. With NMECRVCGDKASGFHYGVHACEGCKGFFRRTIRMKLEYEKCENSCKIQKKNRNKCQYCRFQKCLALGMSHNAIRF [R43N] the abundance fitness was 0.223 ± 0.069. Variant NMECRVCGDKASGFHYGVHACEGCKGFFRRTIRMKLEYEKCESSCKIQKKNRNKCQYCRFQKCLALGMSHNAIRF [R43S] has an abundance fitness of -0.045 ± 0.043. Variant NMECRVCGDKASGFHYGVHACEGCKGFFRRTIRMKLEYEKCEGSCKIQKKNRNKCQYCRFQKCLALGMSHNAIRF [R43G] has an abundance fitness of -0.085 ± 0.033. NMECRVCGDKASGFHYGVHACEGCKGFFRRTIRMKLEYEKCETSCKIQKKNRNKCQYCRFQKCLALGMSHNAIRF [R43T] gave an abundance fitness of -0.161 ± 0.062. NMECRVCGDKASGFHYGVHACEGCKGFFRRTIRMKLEYEKCEKSCKIQKKNRNKCQYCRFQKCLALGMSHNAIRF [R43K] showed an abundance fitness of 0.078 ± 0.051. Variant NMECRVCGDKASGFHYGVHACEGCKGFFRRTIRMKLEYEKCEESCKIQKKNRNKCQYCRFQKCLALGMSHNAIRF [R43E] has an abundance fitness of 0.013 ± 0.05. Variant NMECRVCGDKASGFHYGVHACEGCKGFFRRTIRMKLEYEKCEFSCKIQKKNRNKCQYCRFQKCLALGMSHNAIRF [R43F] has an abundance fitness of 0.082 ± 0.1. Work on NMECRVCGDKASGFHYGVHACEGCKGFFRRTIRMKLEYEKCEQSCKIQKKNRNKCQYCRFQKCLALGMSHNAIRF [R43Q] yielded an abundance fitness of 0.111 ± 0.051. Variant NMECRVCGDKASGFHYGVHACEGCKGFFRRTIRMKLEYEKCEASCKIQKKNRNKCQYCRFQKCLALGMSHNAIRF [R43A] has an abundance fitness of -0.064 ± 0.049. Variant NMECRVCGDKASGFHYGVHACEGCKGFFRRTIRMKLEYEKCEHSCKIQKKNRNKCQYCRFQKCLALGMSHNAIRF [R43H] has an abundance fitness of -0.07 ± 0.086. With NMECRVCGDKASGFHYGVHACEGCKGFFRRTIRMKLEYEKCEMSCKIQKKNRNKCQYCRFQKCLALGMSHNAIRF [R43M] the abundance fitness was -0.043 ± 0.052. Variant NMECRVCGDKASGFHYGVHACEGCKGFFRRTIRMKLEYEKCNRSCKIQKKNRNKCQYCRFQKCLALGMSHNAIRF [E42N] has an abundance fitness of -0.335 ± 0.1. For NMECRVCGDKASGFHYGVHACEGCKGFFRRTIRMKLEYEKCKRSCKIQKKNRNKCQYCRFQKCLALGMSHNAIRF [E42K], the abundance fitness was -0.209 ± 0.063. Work on NMECRVCGDKASGFHYGVHACEGCKGFFRRTIRMKLEYEKCRRSCKIQKKNRNKCQYCRFQKCLALGMSHNAIRF [E42R] yielded an abundance fitness of -0.367 ± 0.038. Variant NMECRVCGDKASGFHYGVHACEGCKGFFRRTIRMKLEYEKCGRSCKIQKKNRNKCQYCRFQKCLALGMSHNAIRF [E42G] has an abundance fitness of -0.135 ± 0.028. Work on NMECRVCGDKASGFHYGVHACEGCKGFFRRTIRMKLEYEKCVRSCKIQKKNRNKCQYCRFQKCLALGMSHNAIRF [E42V] yielded an abundance fitness of -0.074 ± 0.035. Variant NMECRVCGDKASGFHYGVHACEGCKGFFRRTIRMKLEYEKCMRSCKIQKKNRNKCQYCRFQKCLALGMSHNAIRF [E42M] has an abundance fitness of -0.051 ± 0.054. NMECRVCGDKASGFHYGVHACEGCKGFFRRTIRMKLEYEKCTRSCKIQKKNRNKCQYCRFQKCLALGMSHNAIRF [E42T] showed an abundance fitness of -0.117 ± 0.042. With NMECRVCGDKASGFHYGVHACEGCKGFFRRTIRMKLEYEKCFRSCKIQKKNRNKCQYCRFQKCLALGMSHNAIRF [E42F] the abundance fitness was -0.139 ± 0.089. With NMECRVCGDKASGFHYGVHACEGCKGFFRRTIRMKLEYEKCARSCKIQKKNRNKCQYCRFQKCLALGMSHNAIRF [E42A] the abundance fitness was -0.179 ± 0.037. With NMECRVCGDKASGFHYGVHACEGCKGFFRRTIRMKLEYEKCLRSCKIQKKNRNKCQYCRFQKCLALGMSHNAIRF [E42L] the abundance fitness was -0.195 ± 0.04. In the case of NMECRVCGDKASGFHYGVHACEGCKGFFRRTIRMKLEYEKCPRSCKIQKKNRNKCQYCRFQKCLALGMSHNAIRF [E42P], the abundance fitness is reported as -0.25 ± 0.056. Work on NMECRVCGDKASGFHYGVHACEGCKGFFRRTIRMKLEYEKCWRSCKIQKKNRNKCQYCRFQKCLALGMSHNAIRF [E42W] yielded an abundance fitness of -0.295 ± 0.049.
